Substitutions are numbered along the chain they refer to. Names may count otherwise.
B1: FKBP-130: FKBP13 DRD Q72R, Q84E, A117W, P107K; SEQ ID NO: 80 (protein)
chain: HCPIKSRKGDVLHMHYTGKLEDGTEFDSSLPRNQPFVFSLGTGEVIKGWDQGLLGMCEGEKRKLVIKSELGYGERGWPPKIPGGATLVFEVELLKIER
modifications: Description of sequence: FKBP13-AcGFP-mCherry Fusion; Construct Name: FKBP-130; FKBP13 DRD in Construct : FKBP13 (mutated to match FKBP12 active site Q72R Q84E A117W) (DRD P107K)
B2: FKBP-131: FKBP13 DRD Q72R, Q84E, A117W, T126C; SEQ ID NO: 81 (protein)
chain: B1 chain with K67P, T86C
modifications: Description of sequence: FKBP13-AcGFP-mCherry Fusion; Construct Name: FKBP-131; FKBP13 DRD in Construct : FKBP13 (mutated to match FKBP12 active site Q72R Q84E A117W) (DRD T126C)
B3: FKBP-132: FKBP13 DRD Q72R, Q84E, A117W, G92Y; SEQ ID NO: 82 (protein)
chain: B1 chain with G52Y, K67P
modifications: Description of sequence: FKBP13-AcGFP-mCherry Fusion; Construct Name: FKBP-132; FKBP13 DRD in Construct : FKBP13 (mutated to match FKBP12 active site Q72R Q84E A117W) (DRD G92Y)
B4: FKBP-142: FKBP13 DRD Q72R, Q84E, A117W, T64G; SEQ ID NO: 92 (protein)
chain: B1 chain with T24G, K67P
modifications: Description of sequence: FKBP13-AcGFP-mCherry Fusion; Construct Name: FKBP-142; FKBP13 DRD in Construct : FKBP13 (mutated to match FKBP12 active site Q72R Q84E A117W) (DRD T64G)
B5: FKBP-137: FKBP13 DRD Q72R, Q84E, A117W, P75L; SEQ ID NO: 87 (protein)
chain: B1 chain with P35L, K67P
modifications: Description of sequence: FKBP13-AcGFP-mCherry Fusion; Construct Name: FKBP-137; FKBP13 DRD in Construct : FKBP13 (mutated to match FKBP12 active site Q72R Q84E A117W) (DRD P75L)
B6: FKBP-135: FKBP13 DRD Q72R, Q84E, A117W, E61Y; SEQ ID NO: 85 (protein)
chain: B1 chain with E21Y, K67P
modifications: Description of sequence: FKBP13-AcGFP-mCherry Fusion; Construct Name: FKBP-135; FKBP13 DRD in Construct : FKBP13 (mutated to match FKBP12 active site Q72R Q84E A117W) (DRD E61Y)
B7: FKBP-138: FKBP13 DRD Q72R, Q84E, A117W, G124R; SEQ ID NO: 88 (protein)
chain: B1 chain with K67P, G84R
modifications: Description of sequence: FKBP13-AcGFP-mCherry Fusion; Construct Name: FKBP-138; FKBP13 DRD in Construct : FKBP13 (mutated to match FKBP12 active site Q72R Q84E A117W) (DRD G124R)
B8: FKBP-140: FKBP13 DRD Q72R, Q84E, A117W, K135Y; SEQ ID NO: 90 (protein)
chain: B1 chain with K67P, K95Y
modifications: Description of sequence: FKBP13-AcGFP-mCherry Fusion; Construct Name: FKBP-140; FKBP13 DRD in Construct : FKBP13 (mutated to match FKBP12 active site Q72R Q84E A117W) (DRD K135Y)
B9: FKBP-139: FKBP13 DRD Q72R, Q84E, A117W, E130R; SEQ ID NO: 89 (protein)
chain: B1 chain with K67P, E90R
modifications: Description of sequence: FKBP13-AcGFP-mCherry Fusion; Construct Name: FKBP-139; FKBP13 DRD in Construct : FKBP13 (mutated to match FKBP12 active site Q72R Q84E A117W) (DRD E130R)
B10: FKBP-141: FKBP13 DRD Q72R, Q84E, A117R, L52R; SEQ ID NO: 91 (protein)
chain: B1 chain with L12R, K67P, W77R
modifications: Description of sequence: FKBP13-AcGFP-mCherry Fusion; Construct Name: FKBP-141; FKBP13 DRD in Construct : FKBP13 (mutated to match FKBP12 active site Q72R Q84E A117R (DRD L52R))
B11: FKBP-136: FKBP13 DRD Q72R, Q84E, A117W, S108M; SEQ ID NO: 86 (protein)
chain: B1 chain with K67P, S68M
modifications: Description of sequence: FKBP13-AcGFP-mCherry Fusion; Construct Name: FKBP-136; FKBP13 DRD in Construct : FKBP13 (mutated to match FKBP12 active site Q72R Q84E A117W) (DRD S108M)
B12: FKBP-134: FKBP13 DRD Q72R, Q84E, A117W, H41R; SEQ ID NO: 84 (protein)
chain: B1 chain with H1R, K67P
modifications: Description of sequence: FKBP13-AcGFP-mCherry Fusion; Construct Name: FKBP-134; FKBP13 DRD in Construct : FKBP13 (mutated to match FKBP12 active site Q72R Q84E A117W) (DRD H41R)
B13: FKBP-133: FKBP13 DRD Q72R, Q84E, A117W, G83T; SEQ ID NO: 83 (protein)
chain: B1 chain with G43T, K67P
modifications: Description of sequence: FKBP13-AcGFP-mCherry Fusion; Construct Name: FKBP-133; FKBP13 DRD in Construct : FKBP13 (mutated to match FKBP12 active site Q72R Q84E A117W) (DRD G83T)

The molecules below were run on Jurkat cells (assay: Tacrolimus dose response of FKBP13-AcGFP-mCherry constructs stably transduced into Jurkat cells, GFP MFI by flow cytometry). Conditions: tacrolimus, Jurkat cells stably transduced; Table 6.
Assay type: cell-based
Method: The regulation of AcGFP, from FKBP13-AcGFP-mCherry constructs, in Jurkat cells, was also studied. Jurkat Clone E6-1 cells were cultured in standard media (RPMI+GlutaMAX Supplement (Life Technologies, Carlsbad, CA Cat #61870127), Fetal Bovine Serum (FBS) (Life Technologies Cat #10-082-147)). Jurkat cells were transduced with lentivirus produced with each of FKBP-039, FKBP-040, FKBP-041, FKBP-042, FKBP-043, FKBP-044, or FKBP-045 constructs. Jurkat cells were transduced until they were 10-25% positive, as determined on day 5 post-transduction, by using mCherry as a transduction marker. […] The Geometric Mean Fluorescent Intensity (MFI) of GFP expression in mCherry+ cells was plotted and dose response curve fits were performed using Prism Software (San Diego, CA).
FKBP-091 was used as a comparative construct.
FIGS. 22-38 show the results of characterization of FKBP-160-292. […] FKBP-091 and FKBP-117 was used as a comparative control for FKBP-160-FKBP-255. FKBP-195 was used as a comparative control for FKBP-256-FKBP-275. FKBP-117, FPBP-195 and FKBP-251 were used as a comparative control for FKBP-276-FKBP-292.
FKBP mutants were cloned in a manner to make a fusion protein with AcGFP in order to assess FKBP mutant regulation by using AcGFP expression as a readout. […] Further iterative FKBP mutants (FKBP-256-FKBP-292) were constructed from these initial combinatorial mutants to see if we could further improve FKBP DRD properties.
For B1, the “Fold Change” value was 14.40.
In the case of B2, the “Fold Change” value is reported as 21.30.
With B3 the “Fold Change” value was 16.27.
In the case of B4, the “Fold Change” value is reported as 33.42.
For B5, the “Fold Change” value was 45.79.
With B6 the “Fold Change” value was 25.52.
For B7, the “Fold Change” value was 10.43.
B8 was tested, and the “Fold Change” value was 28.70.
In the case of B9, the “Fold Change” value is reported as 52.24.
With B10 the “Fold Change” value was 1.00.
For B11, the “Fold Change” value was 22.46.
In the case of B12, the “Fold Change” value is reported as 15.64.
B13 was tested, and the “Fold Change” value was 19.11.
